Measured values taken from PMC11847541, “Liver fatty acid binding protein FABP1 transfers substrates to cytochrome P450 4A11 for catalysis” (The Journal of Biological Chemistry, 2025).
“And” between values parts separate entries of the source, which are not always exact repeats. Equal entries are not always repeated. Where two headings read alike, the source gives them in different places. Each block holds one molecule with its values, some of them ahead of it.

Key:
[1] = molecular target: T1, P450 4A11 (Homo sapiens, UniProt Q02928); parameters: made in house; host or cells: E. coli; method as in PMID 25203493; conditions: cited from earlier work
T1 sequence (Q02928 5-519): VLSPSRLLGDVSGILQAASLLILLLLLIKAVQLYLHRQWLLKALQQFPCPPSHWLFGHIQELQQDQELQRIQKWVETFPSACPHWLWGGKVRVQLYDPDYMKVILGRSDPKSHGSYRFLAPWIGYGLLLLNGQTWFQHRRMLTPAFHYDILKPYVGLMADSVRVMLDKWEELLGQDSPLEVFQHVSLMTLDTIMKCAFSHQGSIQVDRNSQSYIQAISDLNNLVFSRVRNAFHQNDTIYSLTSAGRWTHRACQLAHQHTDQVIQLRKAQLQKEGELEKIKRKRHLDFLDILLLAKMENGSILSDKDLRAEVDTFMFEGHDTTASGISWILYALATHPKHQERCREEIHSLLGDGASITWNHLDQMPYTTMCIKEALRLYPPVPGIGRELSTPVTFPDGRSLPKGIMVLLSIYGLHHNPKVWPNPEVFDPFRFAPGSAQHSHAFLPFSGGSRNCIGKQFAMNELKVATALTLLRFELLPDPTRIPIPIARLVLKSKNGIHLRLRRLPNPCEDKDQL

[2] = molecular target: T1, P450 4A11
[3] = molecular target: T2, P450 101A1 (P450cam) (Pseudomonas putida, UniProt P00183); experiment: Control fluorescence titration of Alexa-FABP1 with P450 101A1 (P450cam); assay type: binding, bacterial; conditions: 100 mM KPhos
T2 construct: made in house
T2 sequence (P00183 whole entry, looked up): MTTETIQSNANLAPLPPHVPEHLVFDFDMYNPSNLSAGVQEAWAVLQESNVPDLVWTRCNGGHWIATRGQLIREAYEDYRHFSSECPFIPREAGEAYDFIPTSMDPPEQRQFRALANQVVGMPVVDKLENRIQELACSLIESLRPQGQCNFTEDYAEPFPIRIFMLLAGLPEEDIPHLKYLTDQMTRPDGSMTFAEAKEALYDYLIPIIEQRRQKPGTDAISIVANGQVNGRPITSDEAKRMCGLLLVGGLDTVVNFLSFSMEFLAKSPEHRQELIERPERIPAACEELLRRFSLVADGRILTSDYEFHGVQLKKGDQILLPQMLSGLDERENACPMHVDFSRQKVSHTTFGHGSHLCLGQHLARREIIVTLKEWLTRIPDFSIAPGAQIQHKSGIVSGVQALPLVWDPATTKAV
Experimental: (§1) The Alexa-FABP1 construct was tested for P450 binding in a fluorescence titration with P450 4A11.
(§2) Figure 10 Binding of Alexa-FABP1 to P450 4A11.A, equilibrium binding titration of Alexa-FABP1 (25 nM) with P450 4A11 as the titrant (0–50 nM). Titrations were performed in 10 mM (closed circles) or 100 mM (open circles) potassium phosphate buffer (pH 7.4). A control reaction was performed with P450 101A1 (P450cam) in 100 mM KPhos (open squares). The change in fluorescence upon protein–protein binding was normalized to the corresponding change in a buffer control. […] Each data point corresponds to one independent replicate, ≥3 biological replicates were collected to confirm the effect. B, kinetics of binding of Alexa-FABP1 (0.125 μM) and P450 4A11 (0.125 μM). Six traces were averaged, and the data were fit to a single exponential curve (in red). The extracted binding rate was 2.0 ± 0.2 s^−1. FABP1, fatty acid binding protein.

[4] = molecular target: T3, P450 4A11 (Homo sapiens, UniProt Q02928); experiment: Alexa-FABP1 and P450 4A11 association kinetics (stopped-flow fluorescence); assay type: binding
T3 construct: made in house; host or cells: E. coli
T3 sequence (Q02928 5-519): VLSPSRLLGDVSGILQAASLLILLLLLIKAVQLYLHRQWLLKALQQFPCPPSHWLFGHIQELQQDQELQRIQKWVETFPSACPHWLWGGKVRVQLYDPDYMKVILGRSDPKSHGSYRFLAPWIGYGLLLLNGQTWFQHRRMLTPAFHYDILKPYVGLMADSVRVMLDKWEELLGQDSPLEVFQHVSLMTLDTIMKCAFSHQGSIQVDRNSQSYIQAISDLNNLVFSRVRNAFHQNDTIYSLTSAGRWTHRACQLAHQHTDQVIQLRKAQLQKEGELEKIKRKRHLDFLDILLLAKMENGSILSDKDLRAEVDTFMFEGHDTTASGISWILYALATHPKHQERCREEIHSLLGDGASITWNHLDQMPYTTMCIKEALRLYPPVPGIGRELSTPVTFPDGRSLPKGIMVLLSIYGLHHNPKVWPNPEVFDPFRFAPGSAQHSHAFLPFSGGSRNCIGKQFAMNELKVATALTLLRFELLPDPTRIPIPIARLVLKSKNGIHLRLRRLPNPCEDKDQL
T3 sequence (P07148 with tags, fused parts or gaps partner): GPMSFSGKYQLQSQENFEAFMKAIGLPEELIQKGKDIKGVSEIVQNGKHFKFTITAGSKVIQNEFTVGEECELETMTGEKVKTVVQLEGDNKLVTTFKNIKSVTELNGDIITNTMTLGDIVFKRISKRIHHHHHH
Experimental: We then investigated whether the rate of protein–protein association could be estimated using our fluorescent construct. A solution of Alexa-FABP1 (125 nM final concentration) was rapidly mixed with P450 4A11 (125 Nm final concentration), and Alexa-488 fluorescence was monitored over time. The data were fit to a single exponential equation and yielded an association rate of 2.0 ± 0.2 s^−1 (Fig. 10B).
To estimate a rate of interaction for FABP1 and P450, we loaded the protein–protein binding data (Fig. 10B) and fit the data to a simple model, E+F↔EF , as described in the Experimental procedures section. The software fit a kon rate of 2.0 × 10^7 M^−1 s^−1, close to that estimated by using the extracted binding rate ∼2 s^−1 at the concentration (0.125 μM) of either reaction component (i.e., 2 s^−1/0.125 μM = 16 μM^−1 s^−1 = 1.6 × 10^7 M^−1 s^−1).
Mixing solutions (2 ml) of (A) Alexa-FABP1 (0.25 μM [estimated by A280 prior to conjugation reaction, accounting for dilution, and assuming no protein loss during the reaction as described earlier]) and (B) P450 4A11 (0.25 μM) were prepared in potassium phosphate buffer (100 mM, pH 7.4) and loaded into the stopped-flow spectrofluorometer described earlier. The instrument (1.24 mm slit width) was set with an excitation wavelength of 470 nm and Oriel end-on filter for emission >495 nm. The fluorescence maximum of Alexa-FABP1 is 510 nm as described earlier, and stimulation is observed upon protein–protein binding (see “Titrations of Alexa-FABP1 with P450 4A11”). At least six replicate measurements were recorded, the spectra were processed such that the fluorescence gain (from DAUDA binding) began at an (x, y) intercept of (0, 0), and the spectra were averaged. A smoothing factor of 0.4 was applied to the data (in Microsoft Excel), and the resulting curve was fit to a single exponential plot in GraphPad Prism, and the rate of association was extracted. The data were loaded into KinTek Explorer and fit to a minimal kinetic model of protein–protein association (i.e., E+F↔EF ), and a second-order rate constant for the association was extracted.

[5] = molecular target: T3, P450 4A11; experiment: Fluorescence titration of Alexa-FABP1 with P450 4A11; assay type: binding
Experimental: as §1, §2
Alexa-FABP1 (25 nM [estimated by an asborbance at 280 nm prior to conjugation reaction, accounting for dilution, and assuming no protein loss during the reaction]) was prepared in potassium phosphate buffer (10 mM or 100 mM, pH 7.4) in a 1 ml glass cuvette. A buffer baseline was recorded using an OLIS DM-45 spectrofluorometer (1.24 mm slit width) with excitation wavelength of 470 nm and scanning emission spectra from 500 to 600 nm. P450 4A11 (stored in 100 mM potassium phosphate buffer [pH 7.4] containing 20% glycerol) was titrated (0–50 nM) into the Alexa-FABP1 solution. The same experiment was repeated but with the P450 4A11 buffer used as the titrant to normalize the data for any solvent effect. […] As stimulation was observed by the P450 interaction, the value of one was subtracted from the normalized fluorescence values so that the curve would have an (x, y) intercept of (0, 0). Kd values were calculated fitting plots of the normalized fluorescence at emission maximum versus concentration of P450 4A11 using a quadratic equation in GraphPad Prism software.

[6] = molecular target: T4, Cytochrome P450 4A11 (human, UniProt Q02928 5-519); experiment: other fluorescence titration; Alexa-FABP1 (25 nM) in the cuvette, P450 titrated in (P450 4A11 0–50 nM); 100 mM potassium phosphate, pH 7.4; excitation 470 nm, emission maximum 510 nm; normalized to a buffer titration; no phospholipid; conditions: both partners purified
T4 construct: cytochrome P450 4A11, human fatty acid ω-hydroxylase
T4 sequence (looked up): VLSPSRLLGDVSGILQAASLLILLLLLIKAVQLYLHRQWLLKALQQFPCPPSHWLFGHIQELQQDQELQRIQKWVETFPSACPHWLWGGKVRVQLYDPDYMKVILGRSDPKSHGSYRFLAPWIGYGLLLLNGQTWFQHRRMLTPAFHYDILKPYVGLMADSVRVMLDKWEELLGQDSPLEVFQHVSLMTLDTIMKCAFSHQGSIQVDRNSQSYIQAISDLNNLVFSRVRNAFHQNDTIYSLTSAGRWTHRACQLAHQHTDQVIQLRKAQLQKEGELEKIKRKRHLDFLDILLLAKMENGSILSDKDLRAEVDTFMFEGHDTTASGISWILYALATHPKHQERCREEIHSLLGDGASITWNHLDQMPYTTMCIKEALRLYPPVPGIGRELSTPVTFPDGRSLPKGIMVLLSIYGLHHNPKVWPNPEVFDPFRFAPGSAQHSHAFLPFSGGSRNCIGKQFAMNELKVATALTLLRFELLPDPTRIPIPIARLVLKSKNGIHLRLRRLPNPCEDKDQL

[7] = molecular target: T4, Cytochrome P450 4A11; experiment: stopped-flow fluorescence kinetics; Alexa-FABP1 and P450 4A11 rapidly mixed, 0.125 μM each final; 100 mM potassium phosphate, pH 7.4; excitation 470 nm, emission >495 nm; single exponential fit and KinTek Explorer fit to E+F↔EF; conditions: both partners purified
[8] = molecular target: T4, Cytochrome P450 4A11; experiment: other fluorescence titration; Alexa-FABP1 (25 nM) in the cuvette, P450 4A11 titrated in (0–50 nM); 10 mM potassium phosphate, pH 7.4; excitation 470 nm, emission maximum 510 nm; quadratic fit; no phospholipid; conditions: both partners purified

Molecule: O=C(O)CCCCCCCCCCCO [12-OH laurate]
- P450 heme Soret spectral shift induced [1]: typical type I spectral shift

Molecule: Alexa-FABP1: FABP1 labeled at Cys-71 with Alexa-488 C5 maleimide
- change of Alexa-FABP1 fluorescence [3]: mild attenuation of fluorescence
- rate of protein–protein association ([4]; Alexa-FABP1 0.125 μM, P450 4A11 0.125 μM, single exponential): ~2 s⁻¹ and 2.0 ± 0.2 s⁻¹
- kon of FABP1–P450 4A11 association (k6) ([4]; KinTek fit to E+F↔EF): ~2e+07 M⁻¹ s⁻¹
- decrease of Kd on reducing ionic strength ([5]; 100 mM to 10 mM potassium phosphate): ~38 fold
- Kd ([5]; dependent on ionic strength): 3 to 124 nM

Further lines, results first:

- P450 heme Soret spectral shift induced [2]: type II
Molecule: CC(=O)N1CCN(c2ccc(OCC3COC(Cn4ccnc4)(c4ccc(Cl)cc4Cl)O3)cc2)CC1 (centres unmarked) [ketoconazole]

- Kd [6]: 120 ± 80 nM
- koff [7]: 2.4 s⁻¹
- kon [7]: 2e+07 M⁻¹ s⁻¹
- Kd [8]: 3.3 ± 0.9 nM
B1: Alexa Fluor 488–labeled FABP1 (natural protein, human, UniProt P07148 1-127, looked up)
chain: MSFSGKYQLQSQENFEAFMKAIGLPEELIQKGKDIKGVSEIVQNGKHFKFTITAGSKVIQNEFTVGEECELETMTGEKVKTVVQLEGDNKLVTTFKNIKSVTELNGDIITNTMTLGDIVFKRISKRI
modifications: Alexa Fluor 488 C5 maleimide on Cys-71 of the construct (Cys-69 of FABP1); low background labeling of free amines
notes: final construct is a 15,185.4 Da protein; Cys-69 of FABP1 is Cys-71 in the construct. numbers count on: Cys-71 on the construct, Cys-69 on FABP1; The unlabeled, delipidated form of the same protein was used in the palmitate transfer and catalytic assays; also called Alexa-FABP1; Alexa-488-labeled FABP1; not shown: GST, N-terminal, cleaved; His6, C-terminal, kept
